We go through 23 molecules from US20250236673A1 (Ablynx, published 2025).

B1: T028501817 (VHH)
VHH: EVQLVESGGGVVQPGGSLRLSCAASGHTFSEYALGWFRQAPGKEREFVAAINWGGGWTYYADSVKGRFTISRDNAKNTLYLQMNSLRPEDTALYYCAASSDYAGGNPTGYPYWGQGTLVTVSS
notes: also called A031500099; A0315024B02(L11V, A14P, D16G S23A, M43K, Q64K, K83R, G85E, G89L)
B2: T028501819 (VHH)
VHH: EVQLVESGGGVVQPGGSLRLSCAASGHTFSEYALGWFRQAPGQEREFVAAINWGGGWTYYADSVKGRFTISRDNAKNTLYLQMNSLRPEDTALYYCAASSDYAGGNPTGYPYWGQGTLVTVSS
notes: K43Q vs precursor T028501817; also called A0315024B02(M43Q, Q64K, K83R)
B3: T028501823 (VHH)
VHH: EVQLVESGGGVVQPGGSLRLSCAASGHTFSEYALGWFRQAPGKEREFVAAINWGGGWTYYADSVEGRFTISRDNAKNTLYLQMNSLRPEDTALYYCAASSDYAGGNPTGYPYWGQGTLVTVSS
notes: K64E vs precursor T028501817; also called A0315024B02(M43K, Q64E, K83R)
B4: T028501824 (VHH)
VHH: EVQLVESGGGVVQPGGSLRLSCAASGHTFSEYALGWFRQAPGKEREFVAAINWGGGWTYYADSVQGRFTISRDNAKNTLYLQMNSLRPEDTALYYCAASSDYAGGNPTGYPYWGQGTLVTVSS
notes: also called A0315024B02(M43K, (K64K83R))
B5: T028501818 (VHH)
VHH: EVQLVESGGGVVQPGGSLRLSCAASGHTFSEYALGWFRQAPGEEREFVAAINWGGGWTYYADSVKGRFTISRDNAKNTLYLQMNSLRPEDTALYYCAASSDYAGGNPTGYPYWGQGTLVTVSS
notes: K43E vs precursor T028501817; also called A0315024B02(M43E, Q64K, K83R)
B6: T028501822 (VHH)
VHH: EVQLVESGGGVVQPGGSLRLSCAASGHTFSEYALGWFRQAPGAEREFVAAINWGGGWTYYADSVKGRFTISRDNAKNTLYLQMNSLRPEDTALYYCAASSDYAGGNPTGYPYWGQGTLVTVSS
notes: K43A vs precursor T028501817; also called A0315024B02(M43A, Q64K, K83R)
B7: T028501820 (VHH)
VHH: EVQLVESGGGVVQPGGSLRLSCAASGHTFSEYALGWFRQAPGREREFVAAINWGGGWTYYADSVKGRFTISRDNAKNTLYLQMNSLRPEDTALYYCAASSDYAGGNPTGYPYWGQGTLVTVSS
notes: K43R vs precursor T028501817; also called A0315024B02(M43R, Q64K, K83R)
B8: T028501821 (VHH)
VHH: EVQLVESGGGVVQPGGSLRLSCAASGHTFSEYALGWFRQAPGHEREFVAAINWGGGWTYYADSVKGRFTISRDNAKNTLYLQMNSLRPEDTALYYCAASSDYAGGNPTGYPYWGQGTLVTVSS
notes: K43H vs precursor T028501817; also called A0315024B02(M43H, Q64K, K83R)
B9: T028501790 (VHH)
VHH: EVQLVESGGGVVQPGGSLRLSCAASGLTFSTYTMGWFRQAPGEEREFVAAIIWSGSNTYYADSVKGRFTISRDNAKNTVYLQMNSLRPEDTALYYCAAQHFGPIGLTTRGYHYWGQGTLVTVSS
notes: K43E vs precursor T028501789; also called A0315007E07(K43E)
B10: T028501792 (VHH)
VHH: EVQLVESGGGVVQPGGSLRLSCAASGLTFSTYTMGWFRQAPGREREFVAAIIWSGSNTYYADSVKGRFTISRDNAKNTVYLQMNSLRPEDTALYYCAAQHFGPIGLTTRGYHYWGQGTLVTVSS
notes: K43R vs precursor T028501789; also called A0315007E07(K43R)
B11: T028501795 (VHH)
VHH: EVQLVESGGGVVQPGGSLRLSCAASGLTFSTYTMGWFRQAPGKEREFVAAIIWSGSNTYYADSVEGRFTISRDNAKNTVYLQMNSLRPEDTALYYCAAQHFGPIGLTTRGYHYWGQGTLVTVSS
notes: K64E vs precursor T028501789; also called A0315007E07(K64E)
B12: T028501791 (VHH)
VHH: EVQLVESGGGVVQPGGSLRLSCAASGLTFSTYTMGWFRQAPGQEREFVAAIIWSGSNTYYADSVKGRFTISRDNAKNTVYLQMNSLRPEDTALYYCAAQHFGPIGLTTRGYHYWGQGTLVTVSS
notes: K43Q vs precursor T028501789; also called A0315007E07(K43Q)
B13: T028501799 (VHH)
VHH: EVQLVESGGGVVQPGGSLRLSCAASGLTFSTYTMGWFRQAPGKEREFVAAIIWSGSNTYYADSVAGRFTISRDNAKNTVYLQMNSLRPEDTALYYCAAQHFGPIGLTTRGYHYWGQGTLVTVSS
notes: K64A vs precursor T028501789; also called A0315007E07(K64A)
B14: T028501794 (VHH)
VHH: EVQLVESGGGVVQPGGSLRLSCAASGLTFSTYTMGWFRQAPGAEREFVAAIIWSGSNTYYADSVKGRFTISRDNAKNTVYLQMNSLRPEDTALYYCAAQHFGPIGLTTRGYHYWGQGTLVTVSS
notes: K43A (Kabat) vs precursor T028501789; also called A0315007E07(K43A)
B15: T028501798 (VHH)
VHH: EVQLVESGGGVVQPGGSLRLSCAASGLTFSTYTMGWFRQAPGKEREFVAAIIWSGSNTYYADSVHGRFTISRDNAKNTVYLQMNSLRPEDTALYYCAAQHFGPIGLTTRGYHYWGQGTLVTVSS
notes: K64H vs precursor T028501789; also called A0315007E07(K64H)
B16: T028501804 (VHH)
VHH: EVQLVESGGGVVQPGGSLRLSCAASGLTFSTYTMGWFRQAPGKEREFVAAIIWSGSNTYYADSVKGRFTISRDNAANTVYLQMNSLRPEDTALYYCAAQHFGPIGLTTRGYHYWGQGTLVTVSS
notes: K75A vs precursor T028501789; also called A0315007E07(K75A)
B17: T028501796 (VHH)
VHH: EVQLVESGGGVVQPGGSLRLSCAASGLTFSTYTMGWFRQAPGKEREFVAAIIWSGSNTYYADSVQGRFTISRDNAKNTVYLQMNSLRPEDTALYYCAAQHFGPIGLTTRGYHYWGQGTLVTVSS
notes: K64Q vs precursor T028501789; also called A0315007E07(K64Q)
B18: T028501797 (VHH)
VHH: EVQLVESGGGVVQPGGSLRLSCAASGLTFSTYTMGWFRQAPGKEREFVAAIIWSGSNTYYADSVRGRFTISRDNAKNTVYLQMNSLRPEDTALYYCAAQHFGPIGLTTRGYHYWGQGTLVTVSS
notes: K64R vs precursor T028501789; also called A0315007E07(K64R)
B19: T028501801 (VHH)
VHH: EVQLVESGGGVVQPGGSLRLSCAASGLTFSTYTMGWFRQAPGKEREFVAAIIWSGSNTYYADSVKGRFTISRDNAQNTVYLQMNSLRPEDTALYYCAAQHFGPIGLTTRGYHYWGQGTLVTVSS
notes: K75Q vs precursor T028501789; also called A0315007E07(K75Q)
B20: T028501802 (VHH)
VHH: EVQLVESGGGVVQPGGSLRLSCAASGLTFSTYTMGWFRQAPGKEREFVAAIIWSGSNTYYADSVKGRFTISRDNARNTVYLQMNSLRPEDTALYYCAAQHFGPIGLTTRGYHYWGQGTLVTVSS
notes: K75R vs precursor T028501789; also called A0315007E07(K75R)
B21: T028501793 (VHH)
VHH: EVQLVESGGGVVQPGGSLRLSCAASGLTFSTYTMGWFRQAPGHEREFVAAIIWSGSNTYYADSVKGRFTISRDNAKNTVYLQMNSLRPEDTALYYCAAQHFGPIGLTTRGYHYWGQGTLVTVSS
notes: K43H vs precursor T028501789; also called A0315007E07(K43H)
B22: T028501803 (VHH)
VHH: EVQLVESGGGVVQPGGSLRLSCAASGLTFSTYTMGWFRQAPGKEREFVAAIIWSGSNTYYADSVKGRFTISRDNAHNTVYLQMNSLRPEDTALYYCAAQHFGPIGLTTRGYHYWGQGTLVTVSS
notes: K75H vs precursor T028501789; also called A0315007E07(K75H)
B23: T028501800 (VHH)
VHH: EVQLVESGGGVVQPGGSLRLSCAASGLTFSTYTMGWFRQAPGKEREFVAAIIWSGSNTYYADSVKGRFTISRDNAENTVYLQMNSLRPEDTALYYCAAQHFGPIGLTTRGYHYWGQGTLVTVSS
notes: K75E vs precursor T028501789; also called A0315007E07(K75E)

This assay addresses T1, recombinant human CEACAM5 (human, UniProt P06731 35-685, limits assumed).
T1 construct: Immobilised by amine coupling on a CM5 chip
T1 sequence (looked up): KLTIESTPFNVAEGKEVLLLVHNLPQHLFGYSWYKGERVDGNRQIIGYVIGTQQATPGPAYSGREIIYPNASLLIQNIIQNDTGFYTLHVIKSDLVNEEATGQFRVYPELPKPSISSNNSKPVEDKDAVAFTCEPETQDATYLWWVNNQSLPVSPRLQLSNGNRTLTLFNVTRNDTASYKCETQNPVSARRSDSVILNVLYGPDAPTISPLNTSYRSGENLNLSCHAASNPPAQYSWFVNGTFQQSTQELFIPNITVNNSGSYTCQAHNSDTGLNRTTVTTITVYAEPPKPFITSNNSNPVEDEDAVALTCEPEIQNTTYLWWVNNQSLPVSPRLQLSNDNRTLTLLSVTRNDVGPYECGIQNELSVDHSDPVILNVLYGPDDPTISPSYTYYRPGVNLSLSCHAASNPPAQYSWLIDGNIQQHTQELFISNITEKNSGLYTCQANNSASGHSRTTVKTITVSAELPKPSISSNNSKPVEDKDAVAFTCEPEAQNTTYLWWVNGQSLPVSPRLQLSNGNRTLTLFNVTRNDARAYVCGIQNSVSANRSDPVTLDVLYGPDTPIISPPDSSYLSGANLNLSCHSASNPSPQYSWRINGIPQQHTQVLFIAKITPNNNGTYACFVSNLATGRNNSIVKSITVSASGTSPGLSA
The assay can be described thus: SPR Biacore 8K+, CEACAM5 amine-coupled on CM5, ISVD analyte, 1:1 fit. (In general: In SPR one partner is held on a chip, and binding of the other changes the refractive index at the surface.)
In the case of B1, the dissociation constant (Kd) is 8.9 nM, the dissociation rate constant (koff) came to 0.00212 s⁻¹ and the kon is 238000 M⁻¹ s⁻¹.

Turning to B2, the dissociation constant Kd came to 8.74 nM, the koff came out at 0.00199 s⁻¹ and the kon was 228000 M⁻¹ s⁻¹.

Take B3: the Kd was 18.2 nM, the koff was found to be 0.00282 s⁻¹ and the kon is 155000 M⁻¹ s⁻¹.

On to B4, for which the Kd stood at 12.2 nM, the koff turned out to be 0.00249 s⁻¹ and the kon was determined as 205000 M⁻¹ s⁻¹.

With B5, the Kd was 10.5 nM, the dissociation rate constant (koff) came to 0.00226 s⁻¹ and the kon worked out at 215000 M⁻¹ s⁻¹.

As for B6, the Kd was 8.77 nM, the koff is 0.00198 s⁻¹ and the kon turned out to be 225000 M⁻¹ s⁻¹.

Consider B7, for which the Kd worked out at 7.13 nM, the koff came out at 0.00172 s⁻¹ and the on-rate constant (kon) is 242000 M⁻¹ s⁻¹.

With B8, the Kd was found to be 9.11 nM, the koff is 0.00193 s⁻¹ and the kon is 212000 M⁻¹ s⁻¹.

Turning to B9, the Kd is 1.71 nM, the koff came to 0.00085 s⁻¹ and the kon worked out at 498000 M⁻¹ s⁻¹.

On to B10, for which the dissociation constant Kd was found to be 1.23 nM, the koff is 0.00092 s⁻¹ and the kon came to 747000 M⁻¹ s⁻¹.

Turning to B11, the Kd is 3.55 nM, the off-rate (koff) came out at 0.000914 s⁻¹ and the kon was 258000 M⁻¹ s⁻¹.

As for B12, the Kd was found to be 1.45 nM, the koff stood at 0.00087 s⁻¹ and the kon was 602000 M⁻¹ s⁻¹.

For B13, the Kd was determined as 2.54 nM, the koff stood at 0.000976 s⁻¹ and the kon was found to be 385000 M⁻¹ s⁻¹.

On to B14, for which the Kd worked out at 1.54 nM, the koff is 0.000865 s⁻¹ and the kon amounted to 562000 M⁻¹ s⁻¹.

Take B15: the Kd was 2.39 nM, the koff came to 0.000962 s⁻¹ and the kon worked out at 402000 M⁻¹ s⁻¹.

As for B16, the equilibrium dissociation constant (Kd) was found to be 1.56 nM, the koff was determined as 0.000917 s⁻¹ and the association rate constant (kon) turned out to be 586000 M⁻¹ s⁻¹.

Regarding B17, the dissociation constant Kd came out at 2.24 nM, the koff is 0.000929 s⁻¹ and the kon was found to be 415000 M⁻¹ s⁻¹.

Regarding B18, the Kd was found to be 1.59 nM, the koff is 0.00107 s⁻¹ and the kon was found to be 675000 M⁻¹ s⁻¹.

In the case of B19, the Kd was found to be 1.58 nM, the off-rate (koff) came out at 0.000913 s⁻¹ and the kon came to 579000 M⁻¹ s⁻¹.

In the case of B20, the Kd is 1.39 nM, the koff amounted to 0.000897 s⁻¹ and the kon came out at 643000 M⁻¹ s⁻¹.

As for B21, the Kd came to 1.22 nM, the koff came to 0.000877 s⁻¹ and the kon was found to be 719000 M⁻¹ s⁻¹.

As for B22, the Kd is 1.46 nM, the koff worked out at 0.00084 s⁻¹ and the kon was determined as 574000 M⁻¹ s⁻¹.

Turning to B23, the dissociation constant Kd was 1.72 nM, the koff was determined as 0.000911 s⁻¹ and the kon is 529000 M⁻¹ s⁻¹.

As usually defined, the Kd is a measure of binding affinity in units of concentration. The koff is the rate constant with which the complex falls apart. In general, kon refers to the second-order rate constant of association.
